# According to US20220401560A1, “PEPTIDE ENCAPSULATING FERRITIN” (Ajinomoto Co., Inc., priority 2019, published 2022):
# No end group written: not given here.
# Key:
# SKBR-3 cell = experiment: Cell incorporation observed with two-photon excitation fluorescence microscope; format: cell-based, human; settings: 24 hours, same conditions as FACS test
# ferritin (FTL) = biological target: T1, ferritin (FTL) (Homo sapiens, UniProt P02792); experiment: Encapsulation of fluorescent dye-modified peptide into FTL, column chromatography with absorbance at 480 nm; settings: absorbance at 480 nm at the position of the FTL peak
# T1 construct: made in house; host or cells: Escherichia coli BL21 (DE3), plasmid pET20-FTL
# T1 sequence (P02792 whole entry): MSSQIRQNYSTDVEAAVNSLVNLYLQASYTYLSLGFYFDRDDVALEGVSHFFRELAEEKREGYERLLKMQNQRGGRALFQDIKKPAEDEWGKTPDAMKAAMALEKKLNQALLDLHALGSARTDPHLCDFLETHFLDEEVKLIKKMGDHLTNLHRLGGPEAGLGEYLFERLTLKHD
# Experimental: 0.5 mL of a 50 mM glycine hydrochloride buffer (pH 2.3) that contains FTL (chemical formula weight 480,466) at a final concentration of 5 mg/mL and the peptide at a final concentration of 0.5 mM, was left to stand at room temperature for 15 minutes. Next, 50 μL of a 1 M Tris hydrochloride buffer (pH 9.0) was added for neutralization, and the resulting solution was left to stand at room temperature for 3 hours. After the standing, the resulting solution was centrifuged (at 15,000 rpm for one minute). Then, the supernatant was collected and diluted with a 10 mM Tris hydrochloride buffer (pH 8) up to 3 mL in volume. The resulting solution was injected into the HiPrep 26/60 Sephacryl S-300 HR column (GE Healthcare Inc.) equilibrated with D-PBS (-) (Fujifilm Wako Pure Chemical Corporation) to separate and purify 24-mer FTL by size at a flow rate of 1.3 mL/minute. The purified ferritin was analyzed using a HIPrep 16/60 Sephacryl S-300 HR column (GE Healthcare Inc.) equilibrated with PBS at a flow rate of 0.5 mL/minute.
# ferritin (FTH) [1] = biological target: T2, ferritin (FTH) (Homo sapiens, UniProt P02794); experiment: Search for peptides capable of being encapsulated into ferritin by disassembly/reassembly process, LC-MS detection; settings: encapsulation into ferritin (FTH); three trials
# T2 construct: made in house; host or cells: Escherichia coli BL21 (DE3), plasmid pET20-FTH
# T2 sequence (P02794 whole entry): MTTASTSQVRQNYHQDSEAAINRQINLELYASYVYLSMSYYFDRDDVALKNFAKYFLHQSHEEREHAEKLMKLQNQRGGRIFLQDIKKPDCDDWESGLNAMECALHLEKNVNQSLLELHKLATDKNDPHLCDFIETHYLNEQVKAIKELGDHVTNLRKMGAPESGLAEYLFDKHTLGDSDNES
# Experimental: Peptides capable of being encapsulated into ferritin by disassembly/reassembly process were searched. In the disassembly/reassembly process, 1 mL of a 50 mM glycine hydrochloride buffer (pH 2.3) containing FTH at a final concentration of 5 mg/mL and the peptide at a final concentration of 0.5 mM, was left to stand at room temperature for 15 minutes. Next, 310 μL of a 1 M Tris hydrochloride buffer (pH 9.0) was added for neutralization, and left to stand at room temperature for 3 hours. After the standing, 1.2 mL of a 50 mM Tris hydrochloride buffer (pH 8.0) was added, and centrifuged (at 15,000 rpm for one minute). Thereafter, 2.5 mL of its supernatant was injected into a desalting column PD-10 (Sephadex G-25 filled product, GE Healthcare Inc.) equilibrated with a 50 mM Tris hydrochloride buffer (pH 8) for the elusion with 3.0 mL of a 50 mM Tris hydrochloride buffer (pH 8.0) to separate non-encapsulated peptides and ferritin. A whole amount (3.0 mL) of the resulting solution was concentrated to 0.1 mL by centrifugal ultrafiltration using Vivaspin 20-100K (GE Healthcare Inc.). The operation of adding 10 mL of a 50 mM Tris hydrochloride buffer to the concentrated solution and then concentrating was repeated twice to remove peptides that were not removed by PD-10 to obtain 0.1 mL of a sample solution. For the LC-MS analysis, 50 p1 of a 1 M glycine hydrochloride buffer (pH 2.3) was added to 50 μL of the sample solution and then the resulting solution was left to stand at room temperature for 15 minutes. To the solution, 900 μL of ethanol was added. Next, the resulting solution was stirred vigorously and then centrifuged (at 15,000 rpm for five minutes) for collection of the supernatant. The supernatant was analyzed using LCMS-2020 (Shimadzu Corporation) as LC-MS, Inertsil (Registered trademark) as a column, ODS-3, particle diameter of 2 μm and 2.1 mm×50 mm (GL science). Thereafter, 10 μL of the sample injected into the column was eluded at a flow rate of 0.2 mL/min for 10 minutes such that a mixing ratio of a solution A (0.1% formic acid/99.9% acetonitrile) and a solution B (50% water/50% acetonitrile) is from 95:5 to 95:5.
# The encapsulation of the peptide into ferritin was studied by comparing in terms of the amount of the peptide detected by LC/MS between the sample prepared by encapsulating the peptide into ferritin at the disassembly/reassembly process and the sample prepared simply by mixing ferritin with the peptide. For example, ClAc-FHC was eluted at a retention time of 0.8 minute. […] However, the peak was not observed for the sample prepared by simply mixing the peptide with ferritin without performing the disassembly/reassembly process (FIG. 12B). FIG. 13 to FIG. 17 illustrate LC-MS results for FTH in which the peptide was encapsulated at the disassembly/reassembly process.
# ferritin (FTH) [2] = biological target: T2, ferritin (FTH); experiment: Encapsulation of fluorescent dye-modified peptide into FTH, column chromatography with absorbance at 480 nm and LC-MS
# Experimental: Of a 50 mM glycine hydrochloride buffer (pH 2.3) that contains FTH (chemical formula weight: 509,421) at a final concentration of 5 mg/mL and the peptide at a final concentration of 0.5 mM, 0.5 mL was left to stand at room temperature for 15 minutes. Next, 50 μL of a 1 M Tris hydrochloride buffer (pH 9.0) was added for neutralization, and the resulting solution was left to stand at room temperature for 3 hours. After the standing, the resulting solution was centrifuged (at 15,000 rpm for one minute). Then, the supernatant was collected and the volume was increased up to 3 mL with a 10 mM Tris hydrochloride buffer (pH 8). The resulting solution was injected into the HiPrep 26/60 Sephacryl S-300 HR column (GE Healthcare Inc.) equilibrated with a 10 mM Tris-HCl buffer (pH 8.0) to separate and purify 24-mer FTH by size at a flow rate of 1.3 mL/minute. The purified ferritin was analyzed using a HiPrep 16/60 Sephacryl S-300 HR column (GE Healthcare Inc.) equilibrated with a 10 mM Tris-HCl buffer (pH 8.0) at a flow rate of 0.5 mL/minute and confirmed as the absorbance at 480 nm unobservable from FTH only, at the same position as that of a peak of FTH.
# The solution containing the FTH was concentrated to 0.25 mL by centrifugal ultrafiltration using Vivaspin 20-100K (GE Healthcare Inc.). […] For the LC-MS analysis, 50 μL of a 1 M glycine hydrochloride buffer (pH 2.3) was added to 50 μL of the sample solution and then the resulting solution was left to stand at room temperature for 15 minutes. To the solution 900 μL of ethanol was added. Next, the resulting solution was stirred vigorously and then centrifuged (at 15,000 rpm for five minutes) to collect its supernatant. The supernatant was analyzed using LCMS-2020 (Shimadzu Corporation) as LC-MS, inertsil (Registered trademark) ODS-3 with a particle diameter of 2 μm and 2.1 mm×50 mm (GL science) as a column. Into the column, 10 μL of the sample was injected, and eluded at a flow rate of 0.2 mL/min for 10 minutes such that a mixing ratio of a solution A (0.1% formic acid/99.9% acetonitrile) and a solution B (50% water/50% acetonitrile) was from 95:5 to 95:5. The concentration of the contained protein was determined using a protein assay CBB solution (Nacalai Tesque, Inc.) in terms of bovine albumin as a standard. The concentration of the encapsulated peptide was determined based on the absorbance at 480 nm of the fluorescent dye FAM to which PKC-F is modified.
# First, the construction of FTH encapsulating two kinds of fluorescent dye-modified peptides [5(6)—FAM-[…] (SEQ ID NO: 10), FAM-SV40, chemical formula weight 1,516, and 5(6)—FAM-[…] […] (SEQ ID NO: 11), FAN-Np, chemical formula weight 384] was attempted. 0.5 mL of a 50 mM glycine hydrochloride buffer (pH 2.3) that contains FTH (chemical formula weight 509,421) at a final concentration of 5 mg/mL and a peptide at a final concentration of 0.5 mM, was left to stand at room temperature for 15 minutes. Next, 50 μL of a 1 M Tris hydrochloride buffer (pH 9.0) was added for neutralization, and the resulting solution was left to stand at room temperature for 3 hours. […] The absorbance at […] was confirmed at the same elusion position as that of ferritin 24-mer, for ferritin that was used for the operation to encapsulate FAM-SV40 therein. […] Next, the peptide amount of FAM-SV40 encapsulated in purified ferritin was quantified based on the 480 nm absorbance and by CBB staining with use of ferritin-amount-albumin as a standard.
substance,measurement,setting,value
"5(6)-FAM-RFARKGALRQKNVHEVKN (SEQ ID NO: 9) ({5(6)‑FAM}-RFARKGALRQKNVHEVKN) [PKC-F, fluorescent dye fluorescein (FAM)-modified peptide, linear]","incorporation into cells, fluorescence at the interior of cells",SKBR-3 cell,not confirmed
same,encapsulation of peptide in FTL,ferritin (FTL),encapsulated in FTL
same,encapsulation,ferritin (FTH) [1],A (“A” represents peptides with three times of confirmation of encapsulation.)
same,molecules of peptide encapsulated in one molecule of ferritin on average,"ferritin (FTH) [2]; FTH, from molar ratio",8.5 molecules
same,encapsulation of peptide in FTH,"ferritin (FTH) [2]; absorbance at 480 nm at elution position of 24-mer FTH, LC-MS",encapsulated by the ferritin encapsulation operation without being decomposed
